Data on 41 sequences can be found in the nanobody polyreactivity screen of Harvey et al. (2022).

This data set in a line: yeast display, Sf9 membrane polyspecificity reagent, FACS + sequencing; frameworks hold sequencing errors. Summed up: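 Galactose-induced (36–48 hours) yeast carrying a synthetic nanobody display library were exposed to 10% biotinylated, detergent-solubilized Sf9 membrane reagent at 4 °C for 1 hour. FACS followed streptavidin microbead enrichment, using low and high (top ~1%) gates for expression (anti-HA) and reagent binding (streptavidin). Colony PCR, MiSeq 2 × 250 sequencing and CDR-length filtering followed. Labels for polyreactivity reflect the gate of origin.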
Turning to “QVQLVESGGGLVQAGGSLRLSCAASGIIFYFYAMGWYRQAPGKERELVAAITSGGSTNYADSVKGRFTISRDNAKNTVYLQMNSLKPEDTAVYYCAADRDYYFFRYDYWGQGTQVTVSS”, the “polyreactivity (PSR sort gate)” value was “low polyreactivity”.

As to “QVQLVESGGGLVQAGGSLRLSCAASGFTFGSYAMGWYRQAPGKEREFVAAIRRSGSSTYYADSVKGRFTISRDNAKNTVYLQMNSLKPEDTAVYYCAADVYRRLRRYRYYYWGQGTQVTVSS”, the “polyreactivity (PSR sort gate)” value is listed as “low polyreactivity”.

On to “QVQLVESGGGLVQAGGSLRLSCAASGSTFSSYVMGWDRQARGKERELVAAISSIGGSTYYADSVKGRFTISRDNAKNTVYLQMNSLKPEDTAVYYCAAEPPGSTYEGGYWGQGTQVTVSS”, for which the “polyreactivity (PSR sort gate)” value was “low polyreactivity”.

Consider “QVQLVESGGGLVQAGGSLRLSCAASGFILDTYGMGWYRQAPGKERELVAAISQSDVSTYYADSVKGRFTISRDNAKNTVSLQMNSLKPEDTAVYYCAADRAGLRWFWQLLYDYWGQGTQVTVSS”, for which the “polyreactivity (PSR sort gate)” value is “low polyreactivity”.

Regarding “QVQLVESGGGLVQAGCSLRLSCAASGRIFRKNTMGWYIQAPGKEWELVAAISFRGASTYYADSVKGRFTISRDNAKNTVYLQMNSLKPEDTAVYYCATVRAHASRLGYDYWGQGTQVTVSS”, the “polyreactivity (PSR sort gate)” value is reported as “high polyreactivity”.

Turning to “QVQLVESGGGLVQAGGSLRLSCAASGFTIYFKAMGWYRQAPGKERELVAAISFSGGGTYYADSVKGRFTISRDNAKNTFYLQMNSLKPEDTAVYYCAADWYDWVSTYDYWGQGTQVTVSS”, the “polyreactivity (PSR sort gate)” value is “low polyreactivity”.

In the case of “QVQLVESGGGLVHAGGSLRLSSAASGRISLSNAMRWYTQAPGKETEFVAAITKRSDRTYYADSVKGRFTNSRDNAKNPVYLQMNSLKPEETAVYYCGAKPLFGTRDDYWGQGTQVTVSS”, the “polyreactivity (PSR sort gate)” value is “low polyreactivity”.

Consider “QVQLVESGGGLVQAGGSLRLSCAASGRIFRYNAMGWYRQAPGKERELVAAITQSGGNTYYADSVKGRFTISRDNAKNTVYLQMNSLKPEDTAVYYCAAATRQFAGQRYGYWGQGTQVTVSS”, for which the “polyreactivity (PSR sort gate)” value is reported as “high polyreactivity”.

Consider “QVQLVESGGGLVQAGGSLRLSCAASGIIFYRNAMGWYRQAPGKERELVAAISSRGGNTYYADSVKGRFTISRDNEKNTVYLQMNSLKPEDTAVYYCARDSYSLSRTYDSWGQGTQVTVSS”, for which the “polyreactivity (PSR sort gate)” value is “high polyreactivity”.

As for “QVQLVESGGGLVHAGGSLRLSCAACGRIFGPYDMGWYRQAPGKEMELVAAISWSGGNTYYADSVKGRFTISLDNAKNTVYLQMNSLKPEDTAVYYCNADYYPSSYPYDYWGQGTQVTVSS”, the “polyreactivity (PSR sort gate)” value is given as “low polyreactivity”.

“QVQLVESGGGLVQAGGSLRLSCAASGRTLNYNAMGWYRQAPGKERELVAAITSSGRTYYADSVKGRFTISRDNAKNTVFLQMNSLKPEDTAVYYCAASPYGRSILVRYGYWGQGTQVTVSS”: the “polyreactivity (PSR sort gate)” value is given as “high polyreactivity”.

“QVQLVESGGGLVQAGGSLRLSCAASGRTFVQNAMGWYRQAPGKERELVAAITWSTSGTYYADSVKGRFTISRDNAKNTVYLQMNSLKPEDTAVYYCAKYLAAYTGGGGYWGQGTQVTVSS”: the “polyreactivity (PSR sort gate)” value is recorded as “low polyreactivity”.

Turning to “QVQLVESGGGLVQAGGSLRLSCAASGLTFSSYTMGWYRQAPGKERELVAAISSGGSTYYADSVKGRFTISRDNAKNTVYLQMNSLKPEDTAVYYCAAAFRYTPLSDHGYWGQGTQVTVSS”, the “polyreactivity (PSR sort gate)” value is given as “high polyreactivity”.

As for “QVQLVESGGGLVQAGGSLRLSCAASGTISAYAMGWYRQAPGKERELVAAITRTGGSTYYADSVKGRFTISRDNAKNTVYLQMNSLKPEDTAVYYCATEFRYREFYYWGQGTQVTVSS”, the “polyreactivity (PSR sort gate)” value is “high polyreactivity”.

As to “QVQLVESGGVLDQAGGSLRLSCAAAGITSPDNVMGWYRKAPGKEFDLVAANSGSGGSTYYADYVQGRFTISRDNAKNSVYLQINILKPEDTAVYYCAADVEYKVFPGDYWGQGTQVTVSS”, the “polyreactivity (PSR sort gate)” value was “low polyreactivity”.

On to “QVQLVESGGGLVQAGGSLRLSCAASGSTFGRYAMGWYRQAPGKARELVAAITTSGGRTRYADSVKGRFTISRDNAKNTVYLQMNSLKPEDTAVYYCAASGAQGPDYDYWGQGTQVTVSS”, for which the “polyreactivity (PSR sort gate)” value is reported as “low polyreactivity”.

On to “QVQLVESGGGLVQAGGSLRLSCAASGRIFRYYAMGWYRQAPGKERELVAAIRWTAGSTYYADSVKGRFTISRDNAKNTVYLQMNSLKPEDTAVYYCATDVWKYGRYEYWGQGTLVTVSS”, for which the “polyreactivity (PSR sort gate)” value is on record as “low polyreactivity”.

On to “QVQIVESGGGLVQAGGSLRLTCAASGGIFARYTMGWYRQAPGKERELVATITSGGGTNYADSVKGRFTISRDNAKNTVYLQMISLKPEDTAVYYCAASPRAVSYGPDDRQQYDYWGQGSQVTVSS”, for which the “polyreactivity (PSR sort gate)” value is given as “low polyreactivity”.

On to “QVQLVESGGGLVQAGGSLRLSCAASGFTFGSYAMGWYRQAPGKERELVAAITCSGGSTYYADSVKGRFTISRDNAKNTVYLQMNSLKPEDTAVYYCNADVAGGYGWKSYHGYDYWGQGTQVTVSS”, for which the “polyreactivity (PSR sort gate)” value is listed as “high polyreactivity”.

In the case of “QVQLVESGGGLVQAGGSLRLSCAASGRTFYYYAMGSYRQAPGKEREFVAAITTRGGSTYYADSVKGRFTISRDNAKNTVYLQMNSLKPEDTAVYYCAARSYYQGGYYYWGQGTQVTVSS”, the “polyreactivity (PSR sort gate)” value is given as “high polyreactivity”.

As to “QVQLVESGGGLLQAGGSLPLSCAASGRIFHQYAMGWYRQAPGKERELVAAISKTGTRTYYADSVKGRFTISRDNAKNTVYFQINSLKPDDTAVYYCNALYWTVYSREYDYWGQATQVTVSS”, the “polyreactivity (PSR sort gate)” value is given as “high polyreactivity”.

“QVQLVESGGGLVQAGGSLRLSCAASGRIFGFYAMGWSRQAPGKERELVPGITGSGDGTYADSVKGRFTISRDNAKNTVYLQMNSLKPEDTAVYYCAADYAVGKHWRYGTYRGHYWGQGTQVTVSS”: the “polyreactivity (PSR sort gate)” value is on record as “low polyreactivity”.

For “QVQLVESGGGLVQEGGSLRLSCAASGGTFAYAMGWYRQAPGKERELVAAITWRGGDTYADSVKGRFTISRDNAKNTVYLQMNSLKPEDTAVYYCAAEFRDVSSNGYDYWGQGTQVTVSS”, the “polyreactivity (PSR sort gate)” value is listed as “low polyreactivity”.

Take “QVQLVESGGGLVQAGGRLLLSCAASGFIFYSNAMGWYRQAPGKERELVAAISRSGGSTYYADSVKGRFTISRDNAMNTVFLQMNSLKPEDTAVYYCNADYVYRRYGYWGQGTQVNVSS”: the “polyreactivity (PSR sort gate)” value is recorded as “high polyreactivity”.

As for “QVQLVESGGGLVQAGGSLRLRCAASGGIFGRYAMGWYRQAPGKERELVAAISKRGGSTYYADSVKGRFTISRDNAKNTVYLLMNSLKPEDTAVYYCNASQSVELGYDYLGQGTQVTVSS”, the “polyreactivity (PSR sort gate)” value was “high polyreactivity”.

With “QVQLVESGGGLVQAGGRLRLSCAASGSIFSKNVMGWYRQAPGKERELVAAISIGGRTYYADSVKGRFTISRDNAKNTVSLQLNSLKPEDTAVYYCNTRFAKRATVGRYDYWGQGTQVTVSS”, the “polyreactivity (PSR sort gate)” value is recorded as “high polyreactivity”.

Consider “QVQLVESGGGLVQAGGSLRLSCAASGSIFTSYAMGWYRQAPGKERELVAAITSTGGSTYYADSVKGRFTISRENAKNTVYLQMNSLKPEDTAVYYCNADGGTPYDYWGQGTQVTVSS”, for which the “polyreactivity (PSR sort gate)” value is recorded as “low polyreactivity”.

As for “QVQLVESGGGLVQAGGSLRLSCAAYGGTFYYYAMGWYRQAPGKEREFVAAITWTGGRTYYADSVKGRFTISRDNAKNTVYLQMNSLKPEDTAVYYCAASDRYGGRDYWGQGTQVTVSS”, the “polyreactivity (PSR sort gate)” value is listed as “high polyreactivity”.

For “QVQLVESGGGLVQAGGRLRLSCAASGYIFDDKAMGWYRQAPGKERELVATNYADSVKGRFTISRDNAKNTVYLQMNSLKPEATAVYYCAAEAFYPWTSSRYIAYYYWGQGTQVTVSS”, the “polyreactivity (PSR sort gate)” value is listed as “low polyreactivity”.

For the sequence “QVQLVESRGGLVQAGGSLRLSCAASGSIFLVYAMGWYRQAPGKERELVAAIDSSGGSTYYADSVKGRFTISRDNAKNTVYLQMNSLKREDTAVYYCAVYIRYPWSGRYDYWGQGTQVTVSS”, the “polyreactivity (PSR sort gate)” value is “high polyreactivity”.

“QVQLVESGGGLVQAGGSLRISCAASGRSFWTYAMGWYRQAPGKERELVAAITWRGGSTSYADSVTGRFTISRDTAKNTVYLQMHSLKPEDTAVYYCAADTYSYLRGTYEYDYWGQGTQVTVSS”: the “polyreactivity (PSR sort gate)” value is “high polyreactivity”.

With “QDQLVESGGGLVQAGGSLRLSCAASGFTFVRYAMVWYRQAPGKERELVAAISSSGGSTYYADSVKGRFTISRDNAKNTVYLQMNSLKPEDTAVYYCADGPFYRFTDGRYKSLDYCGQGTQVTVSS”, the “polyreactivity (PSR sort gate)” value is “high polyreactivity”.

On to “QVQLVESGRGLVQAGGSLRLSCAASGSTFIPYVMGWYRKAPGKEREFVAAIRWSGGRTRYADSVKGRFTLSRDNAKNTVYLQMNSLKPEDTAVYYCAAYRLSKPFYKYDYWGQGTQVTVSS”, for which the “polyreactivity (PSR sort gate)” value was “high polyreactivity”.

Take “QVQLVESGGGLVQAGGSLRLSCAASGRTFRPNAMGWYRQAPGNERELVASITRRGGTTYYADSVKGGFTISRDNAKNTVYLHMNSLKPEDTAVYYCNAPPGYSSTRNGYWGQGTQVTVSS”: the “polyreactivity (PSR sort gate)” value is “high polyreactivity”.

Consider “QVHLVESGGGLVQAGGSLRLSCASSGSTFGYYAMGWYRQAPGKERELVAAITGRGGSTYYADSVKGRFTISRDNAKNTVYLQLISLKQEDTAVYYCAVGKYRLYYSGAYGYWGQGTQVTVSS”, for which the “polyreactivity (PSR sort gate)” value is recorded as “high polyreactivity”.

As for “QVQLVESGGGLVQAGGSLRLSCAASGITFIYYAMGWYRQAPGKERELVAAISTGGSTYYADSVKGRCTISRDNAKNTVYLQRKSLKPEDTAVYFWNALRKSLRGGDYWGQGTQVTVSS”, the “polyreactivity (PSR sort gate)” value is on record as “high polyreactivity”.

Regarding “QVQLVESGGGLVQAGGSLRLSCAASGRIFRQYAMGWYRQAPGKERELVAAITSGGSTNYADSVKGRFTISRDNAKNTVYLQMNSLKPEDTAVYYCNARWPYAYQDGYWGQGTQVTVSS”, the “polyreactivity (PSR sort gate)” value is “low polyreactivity”.

Consider “QVQLVESGGGLVQAGGSLRLSCAASGRTFSNYAMGWYRQAPGKERELVAAISQRGGSTYYADSVKGRFTISRDNAKNTVYLLMNSLKPEDTAVYYCNARQTTATGGTGNYWGQGTQVTVSS”, for which the “polyreactivity (PSR sort gate)” value is given as “high polyreactivity”.

Regarding “QVQLVESGGGLVQAGGSLRLSCADSGSTFRRKVMGWYRQAPGKERELVASIRSGGTTNYADSVKGRFTISRDNAKNTVYLQMNSLKPEDTAVYYCAAARSRGYYRASAEVLYGYWGQGTQVTVSS”, the “polyreactivity (PSR sort gate)” value is reported as “high polyreactivity”.

On to “QVQLVESGGGLVQAGGSLRLSCAASGLTFYKNAMGWYRQAPGKEKELVAAISDSGGSTYYADSVKGRFTISRDNAKNTVYLQMNSLKPEDTAVCYCNARRRVYYKGFDYWGQGTQVTVSS”, for which the “polyreactivity (PSR sort gate)” value is “high polyreactivity”.

In the case of “QVQLVETGGGLVQASGSLRLSSAASGRIFTRYAMGWYRQAHGKERELVPAITRGGSTYYADSVKGRFTISRDNAKNTVYLQMNSLKPEDTAVYYCAADWFGISVVRDPFDHWGQGTQVTVSS”, the “polyreactivity (PSR sort gate)” value is “high polyreactivity”.
